From article PMC8891189, “Hydroxycinnamoyltransferase and CYP98 in phenolic metabolism in the rosmarinic acid-producing hornwort Anthoceros agrestis” (Planta, 2022)

B1: AaHCT6 (Anthoceros agrestis) (protein)
chain: MKVSIKKETMVPPAEETPQVALWASNVDLIIPQIHTSSVYFYRPSGSPDFFSGDVLRDALAKALVPFYPMAGRLARDQDGRIQINCNAAGVLLVEAEADVSIDDLGGFAPHPVLQQLVPTVVYTKDITAFPLLVLQVTRFKCGGASLGVGMEHHIADGTSGIHFINTWSDVARGEGVKVLPFVDRTLLRARSPPTPQFEHVEYQTPFTLQPRFRPEEGSEKVETVVESFTFSREQLGKLKAMVADPGANLAYSSYVALSAHIWRCATRARGLSGDQPSKLFVATDGRARLRPPLPRGYFGNVIFTCTPVAEAEELVAKPLIRTAARIQEAVLKMGDEYLRSALDYLELLPDMSVCIRGAAHFGNPNLCITSWSGLPVYDCDFGWGRAIHMGPCQIGFEGLCFVLGSATKDGSLGLALRLRADHMADFRKLVNDI
B2: AaCYP98 (CYP98A147; coAaCYP98 + CbCPR) (Anthoceros agrestis) (protein)
chain: MAELVVRAVLALIAVAVAAGFLFYRARWSRYKLPPGPKPRLFVGNLLDVTAVRFKCFEQWAKVYGPVMSVWMGATLNVVVSSAEGAKEVLKDKDQSLAARARSRAAAKFSRDGQDLIWADYGPHYVKVRKVCNVELFTPKRLEALRPIRQDEVSAMVHKIHRDAPKGPVNPKKYLSAMAFNNITRLAFGKRFVDDEGKIDSQGVEFKEVIGQGMKLGASLKISEHIPSIRWMFPLQNEEFAKHGARRDTLTRTIMKEHAALRETLGPQSHFVDALLGLQKQYDLSETTIIGLLWDMVTAGMDTVAITVEWALAELIRNPEVQRKAQEELDAVVGDETVLTEAHFSKLPYLTALTKESLRLHPPTPLMLPHKCTEDVKIQGYDIPKGTVVHCNIYVIARDPAVWKEPLAFRPERFLEQDVDIKGHDFRLLPFGAGRRVCPGAQLGLNMVQLMIGRLLHQFSWSPPEGVRAEDISLEERSGIVTYMAKSLEAVATPRLPQALYARNV
notes: with NADPH--cytochrome P450 reductase (Coleus blumei)

Key:
[1] = substrate: O=C(O)C1=C[C@@H](O)[C@@H](O)[C@H](O)C1; assay: cells, lysate or membranes; settings: co-substrate p-coumaroyl-CoA, pH 7.0, 30 °C, crude extract
[2] = substrate: CC(C)(COP(=O)(O)OP(=O)(O)OC[C@H]1O[C@@H](n2cnc3c(N)ncnc32)[C@H](O)[C@@H]1OP(=O)(O)O)[C@@H](O)C(=O)NCCC(=O)NCCSC(=O)/C=C/c1ccc(O)c(O)c1; assay: HPLC product assay, Michaelis-Menten fit; type: biochemical, Anthoceros agrestis; settings: co-substrate shikimic acid, pH 7.0, 30 °C, crude extract, pH 7.0
[3] = substrate: CC(C)(COP(=O)(O)OP(=O)(O)OC[C@H]1O[C@@H](n2cnc3c(N)ncnc32)[C@H](O)[C@@H]1OP(=O)(O)O)[C@@H](O)C(=O)NCCC(=O)NCCSC(=O)/C=C/c1ccc(O)cc1; assay: HPLC product assay, Michaelis-Menten fit; type: biochemical, Anthoceros agrestis; settings: co-substrate shikimic acid, pH 7.0, 30 °C, crude extract, pH 7.0
[4] = substrate: Nc1c(O)cccc1C(=O)O; assay: HPLC product assay, Michaelis-Menten fit; type: biochemical, Anthoceros agrestis; settings: co-substrate p-coumaroyl-CoA, pH 9.0, 30 °C, crude extract, amide formed, pH 9.0
[5] = substrate: O=C(O)c1cccc(O)c1O; assay: HPLC product assay, Michaelis-Menten fit; type: biochemical, Anthoceros agrestis; settings: co-substrate p-coumaroyl-CoA, 30 °C, crude extract, ester formed
[6] = substrate: O=C(/C=C/c1ccc(O)cc1)NCCc1ccc(O)cc1; assay: HPLC product assay, Michaelis-Menten fit; type: biochemical, Anthoceros agrestis; settings: co-substrate NADPH, with Coleus blumei CPR, pH 7.0, 30 °C, crude extract
[7] = substrate: O=C(/C=C/c1ccc(O)cc1)Nc1c(O)cccc1C(=O)O; assay: HPLC product assay, Michaelis-Menten fit; type: biochemical, Anthoceros agrestis; settings: co-substrate NADPH, with Coleus blumei CPR, pH 7.0, 30 °C, crude extract
[8] = substrate: O=C(/C=C/c1ccc(O)cc1)Nc1ccccc1C(=O)O; assay: HPLC product assay, Michaelis-Menten fit; type: biochemical, Anthoceros agrestis; settings: co-substrate NADPH, with Coleus blumei CPR, pH 7.0, 30 °C, crude extract

| Protein | Km [1] [µM] | Km [2] [µM] | Km [3] [µM] | Km [4] [µM] | Km [5] [µM] | Km [6] [µM] | Km [7] [µM] | Km [8] [µM] |
| --- | --- | --- | --- | --- | --- | --- | --- | --- |
| B1 | 24.6 ± 10.4 | 19.2 ± 16.2 | 14.4 ± 1.4 | 153.1 ± 33.8 | 1025.9 ± 59.7 | – | – | – |
| B2 | – | – | – | – | – | 36.3 ± 3.6 | 9.3 ± 0.7 | 6.4 ± 0.8 |
